In patent US20160122768:

Experiments:
[1] = biological target: SRC (endogenous, from RA FLS lysates), P12931
[2] = biological target: T1, phospho-SRC Y527 peptide [H-TSTEPQ-pY-QPGENL-OH]
T1 chain: TSTEPQYQPGENL

B1: RPTPκ (endogenous, in human RA FLS and RA synovial tissue) (protein)
chain: AQGQFSAGGCTFDDGPGACDYHQDLYDDFEWVHVSAQEPHYLPPEMPQGSYMIVDSSDHDPGEKARLQLPTMKENDTHCIDFSYLLYSQKGLNPGTLNILVRVNKGPLANPIWNVTGFTGRDWLRAELAVSTFWPNEYQVIFEAEVSGGRSGYIAIDDIQVLSYPCDKSPHFLRLGDVEVNAGQNATFQCIATGRDAVHNKLWLQRRNGEDIPVAQTKNINHRRFAASFRLQEVTKTDQDLYRCVTQSERGSGVSNFAQLIVREPPRPIAPPQLLGVGPTYLLIQLNANSIIGDGPIILKEVEYRMTSGSWTETHAVNAPTYKLWHLDPDTEYEIRVLLTRPGEGGTGLPGPPLITRTKCAEPMRTPKTLKIAEIQARRIAVDWESLGYNITRCHTFNVTICYHYFRGHNESKADCLDMDPKAPQHVVNHLPPYTNVSLKMILTNPEGRKESEETIIQTDEDVPGPVPVKSLQGTSFENKIFLNWKEPLDPNGIITQYEISYSSIRSFDPAVPVAGPPQTVSNLWNSTHHVFMHLHPGTTYQFFIRASTVKGFGPATAINVTTNISAPTLPDYEGVDASLNETATTITVLLRPAQAKGAPISAYQIVVEELHPHRTKREAGAMECYQVPVTYQNAMSGGAPYYFAAELPPGNLPEPAPFTVGDNRTYQGFWNPPLAPRKGYNIYFQAMSSVEKETKTQCVRIATKAATEEPEVIPDPAKQTDRVVKIAGISAGILVFILLLLVVILIVKKSKLAKKRKDAMGNTRQEMTHMVNAMDRSYADQSTLHAEDPLSITFMDQHNFSPRYENHSATAESSRLLDVPRYLCEGTESPYQTGQLHPAIRVADLLQHINLMKTSDSYGFKEEYESFFEGQSASWDVAKKDQNRAKNRYGNIIAYDHSRVILQPVEDDPSSDYINANYIDGYQRPSHYIATQGPVHETVYDFWRMIWQEQSACIVMVTNLVEVGRVKCYKYWPDDTEVYGDFKVTCVEMEPLAEYVVRTFTLERRGYNEIREVKQFHFTGWPDHGVPYHATGLLSFIRRVKLSNPPSAGPIVVHCSAGAGRTGCYIVIDIMLDMAEREGVVDIYNCVKALRSRRINMVQTEEQYIFIHDAILEACLCGETAIPVCEFKAAYFDMIRIDSQTNSSHLKDEFQTLNSVTPRLQAEDCSIACLPRNHDKNRFMDMLPPDRCLPFLITIDGESSNYINAALMDSYRQPAAFIVTQYPLPNTVKDFWRLVYDYGCTSIVMLNEVDLSQGCPQYWPEEGMLRYGPIQVECMSCSMDCDVINRIFRICNLTRPQEGYLMVQQFQYLGWASHREVPGSKRSFLKLILQVEKWQEECEEGEGRTIIHCLNGGGRSGMFCAIGIVVEMVKRQNVVDVFHAVKTLRNSKPNMVEAPEQYRFCYDVALEYLESS
basal phosphorylation of SRC Y527 in RA FLS after PTPRK knockdown (Western blotting) [1]: RA FLS treated with PTPRK ASO showed increased basal phosphorylation of SRC Y527

B2: C-terminally HA-tagged wild type (WT) RPTPκ (NM 008983.2), full-length, immunoprecipitated from COS-1 cells (protein)
chain: ALGQFSAGGCTFDDGPGACDYHQDLYDDFEWVHVSAQEPHYLPPEMPQGSYMVVDSSNHDPGEKARLQLPTMKENDTHCIDFSYLLYSQKGLNPGTLNILVRVNKGPLANPIWNVTGFTGRDWLRAELAVSTFWPNEYQVIFEAEVSGGRSGYIAIDDIQVLSYPCDKSPHFLRLGDVEVNAGQNATFQCIATGRDAVHNKLWLQRRNGEDIPVAQTKNINHRRFAASFRLQEVTKTDQDLYRCVTQSERGSGVSNFAQLIVREPPRPIAPPQLLGVGPTYLLIQLNANSIIGDGPIILKEVEYRMTSGSWTETHAVNAPTYKLWHLDPDTEYEIRVLLTRPGEGGTGLPGPPLITRTKCAEPMRTPKTLKIAEIQARRIAVDWESLGYNITRCHTFNVTICYHYFRGHNESRADCLDMDPKAPQHVVNHLPPYTNVSLKMILTNPEGRKESEETIIQTDEDVPGPVPVKSLQGTSFENKIFLNWKEPLEPNGIITQYEVSYSSIRSFDPAVPVAGPPQTVSNLWNSTHHVFMHLHPGTTYQFFIRASTVKGFGPATAINVTTNISAPSLPDYEGVDASLNETATTITVLLRPAQAKGAPISAYQIVVEQLHPHRTKREAGAMECYQVPVTYQNALSGGAPYYFAAELPPGNLPEPAPFTVGDNRTYKGFWNPPLAPRKGYNIYFQAMSSVEKETKTQCVRIATKAAATEEPEVIPDPAKQTDRVVKIAGISAGILVFILLLLVVIVIVKKSKLAKKRKDAMGNTRQEMTHMVNAMDRSYADQSTLHAEDPLSLTFMDQHNFSPRLPNDPLVPTAVLDENHSATAESSRLLDVPRYLCEGTESPYQTGQLHPAIRVADLLQHINLMKTSDSYGFKEEYESFFEGQSASWDVAKKDQNRAKNRYGNIIAYDHSRVILQPVEDDPSSDYINANYIDIWLYRDGYQRPSHYIATQGPVHETVYDFWRMVWQEQSACIVMVTNLVEVGRVKCYKYWPDDTEVYGDFKVTCVEMEPLAEYVVRTFTLERRGYNEIREVKQFHFTGWPDHGVPYHATGLLSFIRRVKLSNPPSAGPIVVHCSAGAGRTGCYIVIDIMLDMAEREGVVDIYNCVKALRSRRINMVQTEEQYIFIHDAILEACLCGETAIPVCEFKAAYFDMIRIDSQTNSSHLKDEFQTLNSVTPRLQAEDCSIACLPRNHDKNRFMDMLPPDRCLPFLITIDGESSNYINAALMDSYRQPAAFIVTQYPLPNTVKDFWRLVYDYGCTSIVMLNEVDLSQGCPQYWPEEGMLRYGPIQVECMSCSMDCDVINRIFRICNLTRPQEGYLMVQQFQYLGWASHREVPGSKRSFLKLILQVEKWQEECEEGEGRTIIHCLNGGGRSGMFCAIGIVVEMVKRQNVVDVFHAVKTLRNSKPNMVEAPEQYRFCYDVALEYLESS
in vitro dephosphorylation of the SRC phospho-Y527 peptide (PTP assay, Biomol Green, absorbance at 620 nm) [2]: full-length RPTPk immunoprecipitated from COS-1 cells in vitro dephosphorylated a SRC phospho-Y527 peptide
